Reference: patent US20100081620A1
Values belong to the binder of their own block, whether it stands above or below them.

How the values were obtained:
[1] = target: Human ADAM10 protease containing the catalytic/disintegrin domains (human) (UniProt O14672); assay: cell-based or functional assay
[2] = target: T1, ADAM 8 catalytic domain (mouse) (mouse) (UniProt Q05910); assay: cell-based or functional assay
T1 sequence (looked up): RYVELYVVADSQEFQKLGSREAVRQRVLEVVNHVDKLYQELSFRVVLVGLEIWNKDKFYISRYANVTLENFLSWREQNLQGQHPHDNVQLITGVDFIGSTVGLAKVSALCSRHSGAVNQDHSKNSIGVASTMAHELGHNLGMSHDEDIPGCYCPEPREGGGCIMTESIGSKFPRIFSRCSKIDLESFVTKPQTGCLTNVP

[3] = target: TACE catalytic domain (human) (human) (UniProt P78536); assay: cell-based or functional assay
[4] = target: Human TACE protease containing the catalytic/disintegrin domains (human) (UniProt P78536); assay: cell-based or functional assay
MMP 9 = assay: enzyme inhibition, fluorescent peptide substrate
MMP 1 = assay: enzyme inhibition, fluorescent peptide substrate
MMP 2 = assay: enzyme inhibition, fluorescent peptide substrate
MMP 14 = assay: enzyme inhibition, fluorescent peptide substrate
MMP 13 = assay: enzyme inhibition, fluorescent peptide substrate
MMP 3 = assay: enzyme inhibition, fluorescent peptide substrate
Chain of MMP 3 (P08254 100-477): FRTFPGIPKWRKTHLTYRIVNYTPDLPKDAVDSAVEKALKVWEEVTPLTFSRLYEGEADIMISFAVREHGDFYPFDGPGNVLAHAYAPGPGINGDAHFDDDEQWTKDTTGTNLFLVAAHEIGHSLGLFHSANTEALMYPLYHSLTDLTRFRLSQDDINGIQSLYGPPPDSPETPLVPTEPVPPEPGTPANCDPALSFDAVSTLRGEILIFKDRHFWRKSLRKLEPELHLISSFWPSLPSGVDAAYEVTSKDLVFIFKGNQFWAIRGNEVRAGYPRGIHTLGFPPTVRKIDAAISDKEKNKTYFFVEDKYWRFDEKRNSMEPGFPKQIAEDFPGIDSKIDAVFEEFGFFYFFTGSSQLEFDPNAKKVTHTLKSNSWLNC

Chain of Human ADAM10 protease containing the catalytic/disintegrin domains (human) (O14672 214-672 limits assumed): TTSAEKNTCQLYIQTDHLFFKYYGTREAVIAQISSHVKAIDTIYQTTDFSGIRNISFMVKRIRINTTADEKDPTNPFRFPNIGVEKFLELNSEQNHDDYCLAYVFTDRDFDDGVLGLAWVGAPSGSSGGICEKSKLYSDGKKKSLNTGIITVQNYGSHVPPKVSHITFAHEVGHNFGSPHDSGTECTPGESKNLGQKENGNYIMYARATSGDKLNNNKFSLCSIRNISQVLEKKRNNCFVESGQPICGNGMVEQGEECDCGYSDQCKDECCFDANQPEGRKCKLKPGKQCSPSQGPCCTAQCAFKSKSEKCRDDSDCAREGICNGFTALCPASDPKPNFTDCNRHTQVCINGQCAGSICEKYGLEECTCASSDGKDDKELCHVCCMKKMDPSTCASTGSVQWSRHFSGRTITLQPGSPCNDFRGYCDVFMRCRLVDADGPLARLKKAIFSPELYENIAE
Chain of TACE catalytic domain (human) (human) (P78536 215-477 limits assumed): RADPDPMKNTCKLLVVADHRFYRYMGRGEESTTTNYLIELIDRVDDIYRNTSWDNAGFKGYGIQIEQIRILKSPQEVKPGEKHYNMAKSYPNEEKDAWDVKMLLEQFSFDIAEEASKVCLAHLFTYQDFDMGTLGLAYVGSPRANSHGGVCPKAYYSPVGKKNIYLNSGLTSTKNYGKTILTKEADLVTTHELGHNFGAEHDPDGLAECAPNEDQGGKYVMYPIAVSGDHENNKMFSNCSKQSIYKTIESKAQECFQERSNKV
Chain of MMP 2 (P08253 110-660): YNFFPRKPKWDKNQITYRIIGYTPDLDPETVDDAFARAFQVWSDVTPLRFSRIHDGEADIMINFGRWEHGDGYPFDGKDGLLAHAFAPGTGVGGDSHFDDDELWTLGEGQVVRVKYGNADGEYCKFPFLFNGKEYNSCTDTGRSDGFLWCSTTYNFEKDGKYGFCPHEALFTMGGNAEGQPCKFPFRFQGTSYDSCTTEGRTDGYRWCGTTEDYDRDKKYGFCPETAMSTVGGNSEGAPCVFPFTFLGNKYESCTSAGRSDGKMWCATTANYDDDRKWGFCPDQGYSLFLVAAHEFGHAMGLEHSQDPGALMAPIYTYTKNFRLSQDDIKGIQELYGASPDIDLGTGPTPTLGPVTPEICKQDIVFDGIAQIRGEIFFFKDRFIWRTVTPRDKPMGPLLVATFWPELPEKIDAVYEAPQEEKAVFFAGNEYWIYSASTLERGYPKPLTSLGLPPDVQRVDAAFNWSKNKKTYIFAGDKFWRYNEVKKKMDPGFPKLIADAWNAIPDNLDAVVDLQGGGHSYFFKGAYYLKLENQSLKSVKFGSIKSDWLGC
Chain of Human TACE protease containing the catalytic/disintegrin domains (human) (P78536 215-671 limits assumed): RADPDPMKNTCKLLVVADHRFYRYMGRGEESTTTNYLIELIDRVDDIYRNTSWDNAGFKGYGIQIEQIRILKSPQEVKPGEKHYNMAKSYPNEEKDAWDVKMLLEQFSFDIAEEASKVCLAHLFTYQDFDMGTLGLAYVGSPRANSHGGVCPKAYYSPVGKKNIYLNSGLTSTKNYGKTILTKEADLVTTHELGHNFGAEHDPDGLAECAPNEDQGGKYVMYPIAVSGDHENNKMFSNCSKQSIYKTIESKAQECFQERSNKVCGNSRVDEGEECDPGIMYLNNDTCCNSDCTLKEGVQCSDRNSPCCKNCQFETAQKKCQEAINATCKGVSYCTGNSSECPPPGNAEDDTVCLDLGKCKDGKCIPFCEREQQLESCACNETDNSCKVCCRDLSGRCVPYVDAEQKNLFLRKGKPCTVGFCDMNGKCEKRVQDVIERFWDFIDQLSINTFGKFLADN
Chain of MMP 1 (P03956 100-469): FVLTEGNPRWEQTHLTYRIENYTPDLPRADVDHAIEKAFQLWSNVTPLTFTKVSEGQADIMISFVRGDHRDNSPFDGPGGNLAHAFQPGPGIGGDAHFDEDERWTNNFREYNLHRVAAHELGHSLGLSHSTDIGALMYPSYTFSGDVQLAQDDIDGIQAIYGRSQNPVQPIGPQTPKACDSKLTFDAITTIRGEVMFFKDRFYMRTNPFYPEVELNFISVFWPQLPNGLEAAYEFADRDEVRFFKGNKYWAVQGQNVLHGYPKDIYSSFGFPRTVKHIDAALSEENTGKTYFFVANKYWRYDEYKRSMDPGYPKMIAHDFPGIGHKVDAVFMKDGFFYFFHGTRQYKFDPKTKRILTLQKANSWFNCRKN
Chain of MMP 9 (P14780 107-707): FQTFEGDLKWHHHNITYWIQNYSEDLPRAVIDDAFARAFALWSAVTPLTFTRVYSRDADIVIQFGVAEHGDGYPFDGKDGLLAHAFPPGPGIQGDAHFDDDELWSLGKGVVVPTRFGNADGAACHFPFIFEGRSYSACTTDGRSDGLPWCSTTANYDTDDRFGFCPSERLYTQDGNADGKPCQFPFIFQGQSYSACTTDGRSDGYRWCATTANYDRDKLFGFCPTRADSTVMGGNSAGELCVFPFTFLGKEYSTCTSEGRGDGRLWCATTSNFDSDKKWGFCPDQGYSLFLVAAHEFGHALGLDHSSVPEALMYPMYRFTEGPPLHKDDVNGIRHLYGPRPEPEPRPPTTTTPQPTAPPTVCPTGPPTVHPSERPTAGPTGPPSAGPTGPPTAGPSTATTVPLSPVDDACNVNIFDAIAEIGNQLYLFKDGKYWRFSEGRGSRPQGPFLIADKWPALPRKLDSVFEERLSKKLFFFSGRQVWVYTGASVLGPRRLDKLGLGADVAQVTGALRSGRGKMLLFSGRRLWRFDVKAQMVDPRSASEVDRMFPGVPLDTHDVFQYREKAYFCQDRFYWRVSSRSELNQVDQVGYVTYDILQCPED

prodomain inhibition of enzyme activity (percent) [1]: 11%
prodomain inhibition of enzyme activity (percent) [2]: 17%
prodomain inhibition of enzyme activity (percent) [3]: 37%
B1: Pro ADAM 17 (mouse) (protein, UniProt Q9Z0F8 18-214, looked up, not shown: small tags and cut ends)
chain: PRPPEEAGSGSHPRLEKLDSLLSDYDILSLANIQQHSIRKRDLQSATHLETLLTFSALKRHFKLYLTSSTERFSQNLRVVVVDGKEESEYSVKWQNFFSGHVVGEPDSRVLAHIGDDDVTVRINTDGAEYNVEPLWRFVNDTKDKRMLVYKSEDIKDFSRLQSPKVCGYLNADSEELLPKGLIDREPSEEFVRRVKR

prodomain inhibition of enzyme activity (percent) [1]: 25%
prodomain inhibition of enzyme activity (percent) [2]: 9%
prodomain inhibition of enzyme activity (percent) [4]: 13%
prodomain inhibition of enzyme activity (percent) [3]: 50%
B2: Pro ADAM 8 (mouse) (protein, UniProt Q05910 18-186, looked up, not shown: small tags and cut ends)
chain: GPPLPHVKQYEVVWPRRLAASRSRRALPSHWGQYPESLSYALGTSGHVFTLHLRKNRDLLGSSYTETYSAANGSEVTEQLQEQDHCLYQGHVEGYEGSAASISTCAGLRGFFRVGSTVHLIEPLDADEEGQHAMYQAKHLQQKAGTCGVKDTNLNDLGPRALEIYRAQP

Ki (MMP 9): > 2000 nM
Ki (MMP 1): > 2000 nM
Ki (MMP 2): > 2000 nM
Ki (MMP 14): > 2000 nM
Ki (MMP 13): > 2000 nM
Ki (MMP 3): > 2000 nM
B3: wt ProADAM 10 23-213 (C-terminal His tag) (protein)
chain: NPLNKYIRHYEGLSYNVDSLHQKHQRAKRAVSHEDQFLLLDFHAHGRQFNLRMKRDTSLFSDEFKVETSNKVPDYDTSHIYTGHIYGEEGSFSHGSVIDGRFEGFIKTRGGTFYIEPAERYIKDRILPFHSVIYHEDDINYPHKYGPQGGCADHSVFERMRKYQMTGVEEGARAHPEKHAASSGPELLRKKHHHHHH
